Measurements taken from patent US9200045B2, “Small molecule-dependent inteins and uses thereof” (President and Fellows of Harvard College, priority 2011, dated 2015).

Experiments:
[1] = tested on: GFP; conditions: yeast
[2] = tested on: Gli1; test: 4-HT-dependent intein splicing in the Gli1 context in HEK293 cells; format: cell-based, human; conditions: 1 μM 4-HT
Description: (§1) p3XFlag-CMV-14 (Sigma) vectors with Gli1-intein (2-4 and 3-2), and Gli3T-intein (2-4 and 3-2) sequences were previously described (Yuen et al., 2006). p3XFlag-CMV-14 mCherry-intein (2-4 and 3-2) vectors were constructed by cloning the 2-4 and 3-2 intein sequences into the pRSET-B mCherry vector provided by Professor Roger Tsien (University of California at San Diego). The mCherry-intein 2-4 and mCherry-intein 3-2 sequences were then amplified using oligonucleotides introducing a 5′ EcoRI site and a 3′ BamHI site and ligated into EcoRI- and BamHI-digested p3XFlag-CMV-14 vector. 30R3-1 intein sequence and 37R3-2 intein sequence were amplified using the following oligonucleotides compatible with mCherry, Gli1, or Gli3 contexts.

[3] = tested on: GFP; conditions: HEK293, 37° C.
[4] = tested on: Gli3T; test: 4-HT-dependent intein splicing in the Gli3T context in HEK293 cells; format: cell-based, human; conditions: 1 μM 4-HT
Description: as §1

[5] = tested on: GFP, mCherry, Gli1, and Gli3T; test: Intein splicing across all four proteins tested in mammalian cells; conditions: no 4-HT
Description: Western blots were performed using Nu-PAGE 12% Bis-Tris gels (Invitrogen) in 3-(Nmorpholino) propanesulfonic acid (MOPS)-sodium dodecyl sulfate (SDS) buffer (Invitrogen). SDSpolyacrylamide gel electrophoresis (PAGE) and Western blotting were performed using standard protocols. Gels were transferred onto polyvinylidene fluoride (PDVF) membranes (Millipore). Western blots were processed using a mouse anti-FLAG antibody (Sigma) as the primary antibody and a secondary Alexa Fluor 800-conjugated goat anti-mouse antibody (Li-cor Biosciences), then visualized and quantitated using an Odyssey imager (Li-cor Biosciences). […]
The inteins were inserted into mCherry, a red fluorescent protein, in place of Thr 113, the residue in mCherry that corresponds to the Cys residue used for intein insertion in GFP. As in the case of GFP, this placement positions the intein near the mid-point of a β-strand and abolishes mCherry fluorescence until splicing takes place (vide infra). […]
The splicing characteristics of the newly evolved inteins was investigated in the contexts of two additional mammalian proteins, Gli1 and Gli3T. […] The resulting constructs were introduced into HEK293 cells and splicing was evaluated by Western blot as described above.

[6] = tested on: mCherry; test: 4-HT-dependent intein splicing in the mCherry context in HEK293 cells; format: cell-based, human; conditions: for spliced mCherry protein: HEK293, 37° C., 1 μM 4-HT
Description: as §1
HEK293 cells were grown in 10 cm dishes or 6-well plates and transfected with relevant mammalian vectors using Effectene. After growth in the absence of 4-HT or in the presence of 1 μM 4-HT for 24 hours, cells were trypsinized and resuspended in 500 μL of phosphate buffered saline with 1% FBS and 75 U/mL DNase (New England Biolabs). Cell fluorescence analysis was carried out on a BD LSRII cell analyzer.

[7] = HEK293, at 24 hours or 12 hours

| Molecule | splicing in the absence of 4-HT (background splicing) ([1]; 30° C., after 24 hours, no 4-HT) | spliced protein ([1]; 37° C., 1 hour after 4-HT treatment) | Gli1 protein spliced ([2]; HEK293, after 12 hours) | Gli1 protein spliced ([2]; HEK293, after 24 hours) | fraction of the total spliced GFP after 24 hours that was present after 12 hours ([3]; 1 μM 4-HT) | spliced GFP ([3]; after 24 hours, 1 μM 4-HT) | spliced Gli3T protein ([4]; HEK293, after 12 hours) | spliced Gli3T protein ([4]; HEK293, after 24 hours) | background splicing in the absence of 4-HT [5] | background splicing in the absence of 4-HT ([3]; GFP context, no 4-HT) | fold higher GFP splicing efficiency than the original 2-4 intein ([3]; after 24 hours, 1 μM 4-HT) | fold higher GFP splicing efficiency than the original 3-2 intein ([3]; after 24 hours, 1 μM 4-HT) | spliced mCherry protein ([6]; after 12 hours) | spliced mCherry protein ([6]; after 24 hours) | fold higher percentage of spliced mCherry than that of 3-2 intein [6, 7] | fold higher percentage of spliced mCherry than that of the 2-4 intein [6, 7] |
| --- | --- | --- | --- | --- | --- | --- | --- | --- | --- | --- | --- | --- | --- | --- | --- | --- |
| 3-2: previously evolved parental 4-HT-dependent intein, derived from the 2-4 intein (protein) CLAEGTRIFDPVTGTTHRIEDVVDGRKPIHVVAVAKDGTLLARPVVSWFDQGTRDVIGLRIAGGAIVWATPDHKVLTEYGWRAAGELRKGDRVAGPGGSGNSLALSLTADQMVSALLDAEPPILYSEYDPTSPFSEASMMGLLTNLADRELVHMINWAKRVPGFVDLTLHDQAHLLECAWLEILMIGLVWRSMEHPGKLLFAPNLLLDRNQGKCVEGMVEIFDMLLATSSRFRMMNLQGEEFVCLKSIILLNSGVYTFLSSTLKSLEEKDHIHRALDKITDTLIHLMAKAGLTLQQQHQRLAQLLLILSHIRHMSNKGMEHLYSMKYTNVVPLYDLLLEMLDAHRLHAGGSGASRVQAFADALDDKFLHDMLAEELRYSVIREVLPTRRARTFDLEVEELHTLVAEGVVVHNC | 15% | did not generate significant amounts of spliced protein | 22% | 32% | 45% | 33% | 10% | 18% |  |  |  |  |  |  |  |  |
| 37R3-2: evolved 4-HT-dependent intein, clone from 37° C. evolution, Round 3 (protein) CLAEGTRIFDPVTGTTHRIEDVVDGRKPIHVVAAAKDGTLLARPVVSWFDQGTRDVIGLRIAGGATVWATPDHKVLTEYGWRAAGELRKGDRVAGPGGSGNSLALSLTADQMVSALLDAEPPILYSEYDPTSPFSEASMMGLLTNLADRELVHMINWAKRVPGFVDLTLHDQAHLLERAWLEILMIGLVWRSMEHPGKLLFAPNLLLDRNQGKCVEGMVEIFDMLLATSSRFRMMNLQGEEFVCLKSIILLNSGVYTFLSSTLKSLEEKDHIHRALDKITDTLIHLMAKAGLTLQQQHQRLAQLLLILSHIRHMSNKGMEHLYSMKYKNVVPLYDLLLEMLDAHRLHAGGSGASRVQAFADALDDKFLHDMLAEELRYSVIREVLPTRRARTFDLEVEELHTLVAEGVVVHNC |  |  |  |  |  | 73% |  |  | very low and often was not detectable | not observed | 3.8 fold | 2.2 fold | 43% | 72% | ~3 fold | ~5 fold |
